In this test the target is UBE2L3 (human, UniProt P68036 1-154). In words: ITC. A general note: ITC needs no label: the signal is the heat of the interaction.

The record followed here is article PMC11257990 (2024).

Chain of UBE2L3 (P68036 whole entry): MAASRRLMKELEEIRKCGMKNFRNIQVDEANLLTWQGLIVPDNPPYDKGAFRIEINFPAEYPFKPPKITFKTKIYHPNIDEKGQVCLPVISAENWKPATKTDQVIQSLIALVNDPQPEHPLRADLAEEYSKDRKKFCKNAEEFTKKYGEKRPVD

B1: CUL9^ARIH-RBR (domain or fragment)
chain: SPEAVATLASLQLPAGRTMSPQEVEGLMKQTVRQVQETLNLEPDVAQHLLAHSHWGAEQLLQSYSEDPEPLLLAAGLCVHQAQAVPVRPDHCPVCVSPLGCDDDLPSLCCMHYCCKSCWNEYLTTRIEQNLVLNCTCPIADCPAQPTGAFIRAIVSSPEVISKYEKALLRGYVESCSNLTWCTNPQGCDRILCRQGLGCGTTCSKCGWASCFNCSFPEAHYPASCGHMSQWVDDGGYYDGMSVEAQSKHLAKLISKRCPSCQAPIEKNEGCLHMTCAKCNHGFCWRCLKSWKPNHKDYYNCSAMVSKAARQEKRFQDYNERCTFHHQAREFAVNLRNRVSAIHEVPPPRSFTFLNDACQGLEQARKVLAYACVYSFYSQDAEYMDVVEQQTENLELHTNALQILLEETLLRCRDLASSLRLLRADCLSTGMELLRRIQERLLAILQHSAQDFRVGLQSPSVEAWEAKGPNMPGSQPQASSGPEAEEEEEDDEDDVPEWQQDEFDEELDNDSFSYDESENLDQETFFFGDEEEDEDEAYD
For orientation: Kd means the concentration at which binding is half-saturated. In turn, B1 showed a Kd of 12 µM.
